Results reported in article PMC3005623 (Journal of molecular biology, 2010).

T1: Cdc12 (S. cerevisiae, UniProt P32468 1-407)
T1 sequence (looked up): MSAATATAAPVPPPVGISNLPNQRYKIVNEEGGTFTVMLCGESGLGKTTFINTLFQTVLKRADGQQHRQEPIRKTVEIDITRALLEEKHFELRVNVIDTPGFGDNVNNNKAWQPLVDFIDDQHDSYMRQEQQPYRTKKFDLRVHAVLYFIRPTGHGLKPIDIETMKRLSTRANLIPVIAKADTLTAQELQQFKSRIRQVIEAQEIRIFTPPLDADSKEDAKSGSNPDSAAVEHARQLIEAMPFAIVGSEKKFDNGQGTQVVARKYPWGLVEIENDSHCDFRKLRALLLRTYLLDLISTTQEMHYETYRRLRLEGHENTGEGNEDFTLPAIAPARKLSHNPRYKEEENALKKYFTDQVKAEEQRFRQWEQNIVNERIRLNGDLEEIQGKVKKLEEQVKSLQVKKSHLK


Legend:
[1] = target: the molecule itself; test: negative-stain electron microscopy
[2] = target: the molecule itself; test: electron microscopy of lipid monolayers
Cdc12 = target: T1, Cdc12; test: negative-stain electron microscopy

Row | Binder | percent of particles that are heptamers [1] [%] | binding result [2] | other results
1 | Cdc3–Cdc11–(His)6–Cdc12-Cdc10(H24A R25A K28A K29A) complex (complex, S. cerevisiae) chain 1: MSLKEEQVSIKQDPEQEERQHDQFNDVQIKQESQDHDGVDSQYTNGTQNDDSERFEAAESDVKVEPGLGMGITSSQSEKGQVLPDQPEIKFIRRQINGYVGFANLPKQWHRRSIKNGFSFNLLCVGPDGIGKTTLMKTLFNNDDIEANLVKDYEEELANDQEEEEGQGEGHENQSQEQRHKVKIKSYESVIEENGVKLNLNVIDTEGFGDFLNNDQKSWDPIIKEIDSRFDQYLDAENKINRHSINDKRIHACLYFIEPTGHYLKPLDLKFMQSVYEKCNLIPVIAKSDILTDEEILSFKKTIMNQLIQSNIELFKPPIYSNDDAENSHLSERLFSSLPYAVIGSNDIVENYSGNQVRGRSYPWGVIEVDNDNHSDFNLLKNLLIKQFMEELKERTSKILYENYRSSKLAKLGIKQDNSVFKEFDPISKQQEEKTLHEAKLAKLEIEMKTVFQQKVSEKEKKLQKSETELFARHKEMKEKLTKQLKALEDKKKQLELSINSASPNVNHSPVPTKKKGFLR chain 2: MSGIIDASSALRKRKHLKRGITFTVMIVGQSGSGRSTFINTLCGQQVVDTSTTILLPTDTSTEIDLQLREETVELEDDEGVKIQLNIIDTPGFGDSLDNSPSFEIISDYIRHQYDEILLEESRVRRNPRFKDGRVHCCLYLINPTGHGLKEIDVEFIRQLGSLVNIIPVISKSDSLTRDELKLNKKLIMEDIDRWNLPIYNFPFDEDEISDEDYETNMYLRTLLPFAIIGSNEVYEMGGDVGTIRGRKYPWGILDVEDSSISDFVILRNALLISHLHDLKNYTHEILYERYRTEALSGESVAAESIRPNLTKLNGSSSSSTTTRRNTNPFKQSNNINNDVLNPASDMHGQSTGENNETYMTREEQIRLEEERLKAFEERVQQELLLKRQELLQREKELREIEARLEKEAKIKQEE chain 3: MSAATATAAPVPPPVGISNLPNQRYKIVNEEGGTFTVMLCGESGLGKTTFINTLFQTVLKRADGQQHRQEPIRKTVEIDITRALLEEKHFELRVNVIDTPGFGDNVNNNKAWQPLVDFIDDQHDSYMRQEQQPYRTKKFDLRVHAVLYFIRPTGHGLKPIDIETMKRLSTRANLIPVIAKADTLTAQELQQFKSRIRQVIEAQEIRIFTPPLDADSKEDAKSGSNPDSAAVEHARQLIEAMPFAIVGSEKKFDNGQGTQVVARKYPWGLVEIENDSHCDFRKLRALLLRTYLLDLISTTQEMHYETYRRLRLEGHENTGEGNEDFTLPAIAPARKLSHNPRYKEEENALKKYFTDQVKAEEQRFRQWEQNIVNERIRLNGDLEEIQGKVKKLEEQVKSLQVKKSHLK chain 4: MDPLSSVQPASYVGFDTITNQIEAALLAAGFQFNIMVVGQSGLGKSTLINTLFASHLIDSATGDDISALPVTKTTEMKISTHTLVEDRVRLNINVIDTPGFGDFIDNSKAWEPIVKYIKEQHSQYLRKELTAQRERFITDTRVHAILYFLQPNGKELSRLDVEALKRLTEIANVIPVIGKSDTLTLDERTEFRELIQNEFEKYNFKIYPYDSEELTDEELELNRSVRSIIPFAVVGSENEIEINGETFRGRKTRWSAINVEDINQCDFVYLREFLIRTHLQDLIETTSYIHYEGFRARQLIALKENANSRSSAHMSSNAIQR | 14.2 | – | –
2 | Cdc3–Cdc11–(His)6–Cdc12-Cdc10(I22E) complex (complex, S. cerevisiae) chain 1: MSLKEEQVSIKQDPEQEERQHDQFNDVQIKQESQDHDGVDSQYTNGTQNDDSERFEAAESDVKVEPGLGMGITSSQSEKGQVLPDQPEIKFIRRQINGYVGFANLPKQWHRRSIKNGFSFNLLCVGPDGIGKTTLMKTLFNNDDIEANLVKDYEEELANDQEEEEGQGEGHENQSQEQRHKVKIKSYESVIEENGVKLNLNVIDTEGFGDFLNNDQKSWDPIIKEIDSRFDQYLDAENKINRHSINDKRIHACLYFIEPTGHYLKPLDLKFMQSVYEKCNLIPVIAKSDILTDEEILSFKKTIMNQLIQSNIELFKPPIYSNDDAENSHLSERLFSSLPYAVIGSNDIVENYSGNQVRGRSYPWGVIEVDNDNHSDFNLLKNLLIKQFMEELKERTSKILYENYRSSKLAKLGIKQDNSVFKEFDPISKQQEEKTLHEAKLAKLEIEMKTVFQQKVSEKEKKLQKSETELFARHKEMKEKLTKQLKALEDKKKQLELSINSASPNVNHSPVPTKKKGFLR chain 2: MSGIIDASSALRKRKHLKRGITFTVMIVGQSGSGRSTFINTLCGQQVVDTSTTILLPTDTSTEIDLQLREETVELEDDEGVKIQLNIIDTPGFGDSLDNSPSFEIISDYIRHQYDEILLEESRVRRNPRFKDGRVHCCLYLINPTGHGLKEIDVEFIRQLGSLVNIIPVISKSDSLTRDELKLNKKLIMEDIDRWNLPIYNFPFDEDEISDEDYETNMYLRTLLPFAIIGSNEVYEMGGDVGTIRGRKYPWGILDVEDSSISDFVILRNALLISHLHDLKNYTHEILYERYRTEALSGESVAAESIRPNLTKLNGSSSSSTTTRRNTNPFKQSNNINNDVLNPASDMHGQSTGENNETYMTREEQIRLEEERLKAFEERVQQELLLKRQELLQREKELREIEARLEKEAKIKQEE chain 3: MSAATATAAPVPPPVGISNLPNQRYKIVNEEGGTFTVMLCGESGLGKTTFINTLFQTVLKRADGQQHRQEPIRKTVEIDITRALLEEKHFELRVNVIDTPGFGDNVNNNKAWQPLVDFIDDQHDSYMRQEQQPYRTKKFDLRVHAVLYFIRPTGHGLKPIDIETMKRLSTRANLIPVIAKADTLTAQELQQFKSRIRQVIEAQEIRIFTPPLDADSKEDAKSGSNPDSAAVEHARQLIEAMPFAIVGSEKKFDNGQGTQVVARKYPWGLVEIENDSHCDFRKLRALLLRTYLLDLISTTQEMHYETYRRLRLEGHENTGEGNEDFTLPAIAPARKLSHNPRYKEEENALKKYFTDQVKAEEQRFRQWEQNIVNERIRLNGDLEEIQGKVKKLEEQVKSLQVKKSHLK chain 4: MDPLSSVQPASYVGFDTITNQEEHRLLKKGFQFNIMVVGQSGLGKSTLINTLFASHLIDSATGDDISALPVTKTTEMKISTHTLVEDRVRLNINVIDTPGFGDFIDNSKAWEPIVKYIKEQHSQYLRKELTAQRERFITDTRVHAILYFLQPNGKELSRLDVEALKRLTEIANVIPVIGKSDTLTLDERTEFRELIQNEFEKYNFKIYPYDSEELTDEELELNRSVRSIIPFAVVGSENEIEINGETFRGRKTRWSAINVEDINQCDFVYLREFLIRTHLQDLIETTSYIHYEGFRARQLIALKENANSRSSAHMSSNAIQR | 24.9 | – | –
3 | (His)6–Cdc12-Cdc11-Cdc3(G261V) complex (complex, S. cerevisiae) chain 1: MSAATATAAPVPPPVGISNLPNQRYKIVNEEGGTFTVMLCGESGLGKTTFINTLFQTVLKRADGQQHRQEPIRKTVEIDITRALLEEKHFELRVNVIDTPGFGDNVNNNKAWQPLVDFIDDQHDSYMRQEQQPYRTKKFDLRVHAVLYFIRPTGHGLKPIDIETMKRLSTRANLIPVIAKADTLTAQELQQFKSRIRQVIEAQEIRIFTPPLDADSKEDAKSGSNPDSAAVEHARQLIEAMPFAIVGSEKKFDNGQGTQVVARKYPWGLVEIENDSHCDFRKLRALLLRTYLLDLISTTQEMHYETYRRLRLEGHENTGEGNEDFTLPAIAPARKLSHNPRYKEEENALKKYFTDQVKAEEQRFRQWEQNIVNERIRLNGDLEEIQGKVKKLEEQVKSLQVKKSHLK chain 2: MSGIIDASSALRKRKHLKRGITFTVMIVGQSGSGRSTFINTLCGQQVVDTSTTILLPTDTSTEIDLQLREETVELEDDEGVKIQLNIIDTPGFGDSLDNSPSFEIISDYIRHQYDEILLEESRVRRNPRFKDGRVHCCLYLINPTGHGLKEIDVEFIRQLGSLVNIIPVISKSDSLTRDELKLNKKLIMEDIDRWNLPIYNFPFDEDEISDEDYETNMYLRTLLPFAIIGSNEVYEMGGDVGTIRGRKYPWGILDVEDSSISDFVILRNALLISHLHDLKNYTHEILYERYRTEALSGESVAAESIRPNLTKLNGSSSSSTTTRRNTNPFKQSNNINNDVLNPASDMHGQSTGENNETYMTREEQIRLEEERLKAFEERVQQELLLKRQELLQREKELREIEARLEKEAKIKQEE chain 3: MSLKEEQVSIKQDPEQEERQHDQFNDVQIKQESQDHDGVDSQYTNGTQNDDSERFEAAESDVKVEPGLGMGITSSQSEKGQVLPDQPEIKFIRRQINGYVGFANLPKQWHRRSIKNGFSFNLLCVGPDGIGKTTLMKTLFNNDDIEANLVKDYEEELANDQEEEEGQGEGHENQSQEQRHKVKIKSYESVIEENGVKLNLNVIDTEGFGDFLNNDQKSWDPIIKEIDSRFDQYLDAENKINRHSINDKRIHACLYFIEPTVHYLKPLDLKFMQSVYEKCNLIPVIAKSDILTDEEILSFKKTIMNQLIQSNIELFKPPIYSNDDAENSHLSERLFSSLPYAVIGSNDIVENYSGNQVRGRSYPWGVIEVDNDNHSDFNLLKNLLIKQFMEELKERTSKILYENYRSSKLAKLGIKQDNSVFKEFDPISKQQEEKTLHEAKLAKLEIEMKTVFQQKVSEKEKKLQKSETELFARHKEMKEKLTKQLKALEDKKKQLELSINSASPNVNHSPVPTKKKGFLR | – | binds | –
4 | Cdc3(G261V) (natural protein, S. cerevisiae, UniProt P32457 1-520, looked up) MSLKEEQVSIKQDPEQEERQHDQFNDVQIKQESQDHDGVDSQYTNGTQNDDSERFEAAESDVKVEPGLGMGITSSQSEKGQVLPDQPEIKFIRRQINGYVGFANLPKQWHRRSIKNGFSFNLLCVGPDGIGKTTLMKTLFNNDDIEANLVKDYEEELANDQEEEEGQGEGHENQSQEQRHKVKIKSYESVIEENGVKLNLNVIDTEGFGDFLNNDQKSWDPIIKEIDSRFDQYLDAENKINRHSINDKRIHACLYFIEPTVHYLKPLDLKFMQSVYEKCNLIPVIAKSDILTDEEILSFKKTIMNQLIQSNIELFKPPIYSNDDAENSHLSERLFSSLPYAVIGSNDIVENYSGNQVRGRSYPWGVIEVDNDNHSDFNLLKNLLIKQFMEELKERTSKILYENYRSSKLAKLGIKQDNSVFKEFDPISKQQEEKTLHEAKLAKLEIEMKTVFQQKVSEKEKKLQKSETELFARHKEMKEKLTKQLKALEDKKKQLELSINSASPNVNHSPVPTKKKGFLR | – | binds | –
5 | Cdc11(Δ2–18) (natural protein, S. cerevisiae, UniProt P32458 1-415, looked up) MRGITFTVMIVGQSGSGRSTFINTLCGQQVVDTSTTILLPTDTSTEIDLQLREETVELEDDEGVKIQLNIIDTPGFGDSLDNSPSFEIISDYIRHQYDEILLEESRVRRNPRFKDGRVHCCLYLINPTGHGLKEIDVEFIRQLGSLVNIIPVISKSDSLTRDELKLNKKLIMEDIDRWNLPIYNFPFDEDEISDEDYETNMYLRTLLPFAIIGSNEVYEMGGDVGTIRGRKYPWGILDVEDSSISDFVILRNALLISHLHDLKNYTHEILYERYRTEALSGESVAAESIRPNLTKLNGSSSSSTTTRRNTNPFKQSNNINNDVLNPASDMHGQSTGENNETYMTREEQIRLEEERLKAFEERVQQELLLKRQELLQREKELREIEARLEKEAKIKQEE | – | – | percent of particles that are heptamers (Cdc12): 5.4%
